Assay results as given in patent US20250084164A1 (NEXTCURE, published 2025).
Residue numbers refer to the chain shown, from its start.

T1: monomeric LAIR-1-His (R&D Systems) (UniProt Q6GTX8 22-163)
T1 chain: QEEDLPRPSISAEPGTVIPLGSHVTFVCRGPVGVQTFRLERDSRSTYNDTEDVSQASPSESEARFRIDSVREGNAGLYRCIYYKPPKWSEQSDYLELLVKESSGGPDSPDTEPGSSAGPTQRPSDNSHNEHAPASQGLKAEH

T2: monomeric LAIR-1-His (R&D Systems) (UniProt Q6GTX8 22-163, limits assumed)
T2 construct: Bought protein
T2 sequence (looked up): T1 chain

B1: chimeric 6G6 (antibody, V domains shown)
VH: EVQLQQSGPELVKPGASVKISCKASGYTFTTYYMNWVKQSHGKSLEWIGNINPDNGITSYNQKFKGKATLTVDKSSSTAYMELRSLTSEDSAVYYCARGKSLAYWGQGTLVTVSA
VL: DIVMTQSHKFMSTSVGDRVSITCKASQNVGTAVAWYQQKPGQSPKLLIYWASIRHTGVPDRFTGSGSGTDFTLTISNVQSEDLADYFCQQYSSHPYTFGGGTKLEIK
notes: Chimeric mAb
B2: chimeric LAIR-1 mAb 6B2 (antibody, V domains shown)
VH: EVQLVESGGGLVQPKGSLKLSCAASGFSFNINAMNWVRQAPGKGLEWVARIRSKSNNYETYYADSVKDRFTISRDDSESMVYLQMNNLKTEDTAMYYCVRSLWFVYWGQGTLVTVSA
VL: DIQMTQSPASQSASLGESVTITCLASQTIGTWLAWYQQKPGKSPQLLIYAATSLADGVPSRFSGSGSGTKFSFKISSLQAEDFVSYYCQQLYSTPLTFGAGTKLELK
B3: 9H6 (antibody, V domains shown)
VH: EVQLVESGGGLVQPKGSLKLSCAASGFSFNTHAMNWVRQAPGKGLEWVARIRTKSNNYATYYADSVKDRFIISRDDSENMVYLQMNNLKTEDTAIYYCVRLRGGFLDYWGQGTTLTVSS
VL: B2 VL with K42R, S76N, L96F, A100S, L106I
B4: chimeric 11B3 (antibody, V domains shown)
VH: EVQLVESGGGLVQPKGSLKLSCAASDFTFNTYAMHWVRQAPGKGLEWVARIRTKSNNYATYYADSVKDRFTISRDDSQSMLYLQMNNLTTEDTAMYYCVRDRYGGAMDYWGQGTSVTVSS
VL: DIQMAQSSSSFSVSLGDRVTITCKASEDIYIRLAWYQQKPGNAPRLLISTATSLETGVPSRFSGSGSGKDYTLSITSLQTEDVATYYCQQYWSTPYTFGGGTRLEIK
notes: Chimeric mAb
B5: chimeric LAIR-1 mAb 4B3 (antibody, V domains shown)
VH: QIQLQQSGAELARPGASVKLPCKASDYIFISYGLNWVRQTTGQGLEWIGEIYPRSGHTYYNEKFKGKATLTADKSSSTAYMELRSLTSEDSAVYFCARRSVFYDYDKNGFDYWGQGTTLTVSS
VL: DIVMKQSPSSLRVSAGEKVTMSCKSSQSLLNSGNQKNYLAWYQQKPGQPPKLLIYGASTRESGVPDRFTGSGSGTDFALTISSVQAEDLAVYYCQNDHSYPFTFGSGTKLEIK
B6: 12E10V1 (antibody, V domains shown)
VH: QVQLQQSGAELARPGTSVKLSCKASGYTFTSCGLSWVKQRTGQGLEWIGEIYPSNGNSYYSDKVKDKATLTADKSSSTAYMELRSLTSEDSAVYFCARAYYTNGYYAMDYWGQGTSVTVSS
VL: DIVMTQSQKFMSTSVGDRVSITCKASQNVRSAVAWYQQKPGQSPKTLIYLASNRHTGVPDRFTGSGSGTDFTLTISNVQSEDLADYFCLQHWNYPLTFGAGTKLELK
B7: chimeric LAIR-1 mAb 6F4 (antibody, V domains shown)
VH: QVQLQQSGAELAKPGASVKLSCKASGYTFTSYWMHWVKQRPGQGLEWIGYINPFSGHTKYNQKFKDKATLTADKSSSTAYMQLSSLTYEDSAVYYCARNFDQWGQGTTLTVSS
VL: DIKMTQSPSSMYASLGERVTITCKASQDINSYLSWVQQKPGKSPKTLIDRANRLVDGVPSRFSGSGSGQDYSLTISSLEYEDMGIYYCLQYDEFPPYTFGGGTKLEIK
B8: chimeric LAIR-1 mAb 5A6 (antibody, V domains shown)
VH: QVQLQQSGAELARPGASVKLSCKASGYTFTSYGISWVKQRTGQGLEWIGEIYPRRGNTYYNEKFKGKATLTADKSSSTAYMELRSLTSEDSAVYFCARQLFAYWGQGTLVTVSA
VL: DIQMTQSPSSLSASLGERVSFSCRASQDIGSSLNWLQQEPDGTIKRLIYATSSLDSGVPKRFSGSRSGSDYSLTISSLESEDFVEYYCLQYDSFPYTFGGGTKLEIK
B9: chimeric 5E1 (antibody, V domains shown)
VH: EVQLQQSGPELVKPGASVKISCKASGYSFTGYFMNWVKQSPEKSLEWIGEIHPSTGSIIYNQKFKAKATLTIDKSSSTAYMQLKSLTSEDSAVYYCARFDYSNSFAYWGQGTLVTVSA
VL: DIQMTQTTSSLSASLGDRVTISCRASQDISNYLNWYQQKPDGTVKLLIYYTSRLHSGVPSRFSGSGSGTDYSLTISNLEQEDIATYFCQQGNTLPRTFGGGTKLEIK
notes: Chimeric mAb
B10: chimeric 1E11 (antibody, V domains shown)
VH: QVQLQQSGPELVKPGASVKLSCKASGYTFTSYDINWVKQRPGQGLEWIGWIYPRDGSTKYNEKLKGKATLTVDTSSRTAYMELHSLTSEDSAVYFCARGGYYDYDGYWGQGTLVTVSA
VL: DIVMTQAAFSNPVTLGTSASISCRSSKSLLHSNGITYLYWYLQKPGQSPQVLIYQMSSLASGVPDRFSSSGSGTEFTLRISRVEAEDVGVYYCAQNLELPLTFGAGTKLELK
notes: Chimeric mAb (mouse variable, human constant)
B11: chimeric LAIR-1 mAb 7G3 (antibody, V domains shown)
VH: B10 VH with S31T, S57T, L64F, R77T
VL: B10 VL with S58N, L99F
notes: Chimeric mAb

Molecular target: T1, monomeric LAIR-1-His (R&D Systems)
Assay: BLI (Octet RED96)

Kd [nM]	Binder
4.7	B1
6.53	B2
11.6	B3
1.98	B4
32.3	B5
20.2	B6
12.8	B7
23.3	B8
3.92	B9
1.37	B10
1.63	B11

Molecular target: T2, monomeric LAIR-1-His (R&D Systems)
Assay: BLI (Octet RED96), chimeric mAb on anti-human IgG sensor, monomeric LAIR-1-His in solution
Description: Anti-human IgG capture sensors were used to bind to chimeric LAIR-1 mAbs at a density to ensure 1:1 binding to monomeric LAIR-1-His (R&D Systems) in solution at various concentrations. Assay buffer was PBS with 0.05% Tween-20 and regeneration buffer was 10 mM glycine pH 1.5. First, chimeric LAIR-1 mAbs were loaded to sensor. This was followed by association step with LAIR-1-His, and a dissociation step in a separate LAIR-1-His free well. Data was processed using ForteBio data analysis software 9.0. A global fit was used following subtraction of reference wells. The reported average KD values are from at least three independent Octet runs with high confidence of accuracy based on X2 and R2 values. Note the two chimeric versions of 12E10 were tested. Both had relatively low affinity, while the 12E10V2 mAb was removed from usage due to very low affinity.

Kd [nM]	Binder
< 5	B1
< 5	B4
< 5	B9
< 5	B10
< 5	B11
